Source: PMC3712923

Tests used:
β-lactamase-SBP fusion = test: SPR; BIAcoreX; purified β-lactamase-SBP amine-coupled to a CM5 chip, streptavidin variant as analyte; blank flow cell as reference
[1] = molecular target: SAVSBPM18 engineered streptavidin (S27A, G48T) (UniProt P22629); test: affinity column chromatography; streptavidin variant coupled to Affi-gel 15; culture supernatant with β-lactamase-SBP loaded at 142-150% of the theoretical column binding capacity (overloaded); leakage during washing; pure wash fractions pooled with the elution fractions
wild-type streptavidin [2] = molecular target: wild-type streptavidin (UniProt P22629); test: affinity column chromatography; streptavidin variant coupled to Affi-gel 15; culture supernatant with β-lactamase-SBP loaded at 20% of the theoretical column binding capacity (non-overloaded); PBS wash, elution with 5 mM d-biotin
[3] = molecular target: SAVSBPM18 engineered streptavidin (S27A, G48T) (UniProt P22629); test: as above
wild-type streptavidin [4] = molecular target: wild-type streptavidin (UniProt P22629); test: affinity column chromatography; streptavidin variant coupled to Affi-gel 15; culture supernatant with β-lactamase-SBP loaded at 142-150% of the theoretical column binding capacity (overloaded); leakage during washing; pure wash fractions pooled with the elution fractions
[5] = molecular target: SAVSBPM18 engineered streptavidin (S27A, G48T) (UniProt P22629); test: as above; remark: listed apart in the source

Chain of SAVSBPM18 engineered streptavidin (S27A, G48T) (P22629 25-183 S51A/G72T): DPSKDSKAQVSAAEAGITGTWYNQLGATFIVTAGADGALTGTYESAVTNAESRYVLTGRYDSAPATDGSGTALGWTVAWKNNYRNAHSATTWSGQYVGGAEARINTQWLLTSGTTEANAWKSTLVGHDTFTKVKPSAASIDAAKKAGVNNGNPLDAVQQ
Chain of wild-type streptavidin (from UniProt P22629 25-183) (natural protein) (P22629 25-183): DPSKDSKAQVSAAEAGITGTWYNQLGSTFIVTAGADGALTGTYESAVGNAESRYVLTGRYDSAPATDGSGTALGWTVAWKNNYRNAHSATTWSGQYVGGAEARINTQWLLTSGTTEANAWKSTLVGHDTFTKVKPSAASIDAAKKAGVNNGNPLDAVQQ
Chain of wild-type streptavidin (UniProt P22629) (P22629 25-183): as above

| Substance | Kd (β-lactamase-SBP fusion) | koff (β-lactamase-SBP fusion) | kon (β-lactamase-SBP fusion) | percent recovery [1] | percent recovery (wild-type streptavidin [2]) | percent recovery [3] | percent recovery (wild-type streptavidin [4]) | percent recovery [5] |
| --- | --- | --- | --- | --- | --- | --- | --- | --- |
| SAVSBPM18 engineered streptavidin (S27A, G48T) (from UniProt P22629 25-183) (designed binder) | 15.7 nM | 0.000711 s⁻¹ | 45300 M⁻¹ s⁻¹ | – | – | – | – | – |
| wild-type streptavidin (from UniProt P22629 25-183) (natural protein) | 8.59 nM | 0.000816 s⁻¹ | 95000 M⁻¹ s⁻¹ | – | – | – | – | – |
| β-lactamase-SBP fusion | – | – | – | 51% | 90% | 91% | 51% | 58% |
